Test results: the supplement of paper PMC9170038

Test system: K4 kissing-loop RNA reporter
Assay: apparent KD of K4 kissing-loop reporter; higher = weaker reporter binding
Conditions: Eterna round: R107
Method: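 RNA-MaP round R107: designed RNA switches with theophylline, tryptophan, arginine or FMN aptamers are transcribed on-chip within common flanks. They are titrated with a labelled K4 kissing-loop RNA reporter in RNA-MaP buffer (100 mM Tris pH 7.5, 80 mM KCl, 4 mM MgCl2), without ligand or with the indicated ligand. Median apparent KD per design.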

[1] = input ligand: theophylline 20 uM
[2] = input ligand: tryptophan 2.4 mM
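Note: bound reporter read as fluorescence of individual clusters on recovered sequencing chips by microscopy, with normalized cluster intensities fitted with a binding model.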

Sequence	apparent KD of K4 kissing-loop reporter (input ligand: FMN 200 uM) [nM]	apparent KD of K4 kissing-loop reporter (input ligand: arginine 13.2 mM) [nM]	apparent KD of K4 kissing-loop reporter (input ligand: none) [nM]	apparent KD of K4 kissing-loop reporter [1] [nM]	apparent KD of K4 kissing-loop reporter [2] [nM]
CCGCUGCCCUCAGGAUAUUAAGUAUUAGUGAUGUUAGUAAACCGAUGGCGAAAGCCAUCGGUAUGUUGAGAAGGGAGGGUAGCGG [whbob_SS_FMNB__2th199]	370	627	662	1140	550
AGUGGACGUGUCCGGAGUGAUGUUCCGGAUACCAGACACGAAAGUGUCCCUUGGCAGCCGGAGUGAUGUUCCGGCGUUCACUAAA [Omei KL Theo A Exc B v1]	270	185	243	220	257
AGUGGUGUAUCUUUUAAGAGUGAUGUUUUUCGAGGACCGGUACGGCCGCCACUCGAGUGAUGAGUGCGUCGUUGUGGUGAUUAGU [#14 K4 Tryptophan A Exclusion]	816	530	826	688	262
UGGCGUAGAACCGCCGAAUCGCUGUGAGAAGGAGCGGUAAAAUUGCCAGGUAGGUCGCUCACAGCCUCACAGUGAUGUUGUGGGA [Cequralaza]	758	105	117	290	212
GGCAGUGAUGUUGCCAGUGGCAGAUUGGAAGGAGCGUGGUGAGACACAGGUAGGUCGCUAAUUGAAGUUGCUGUCACUAGAAUGC [whbob_Ex_Arginine_A_2t132]	214	280	293	335	231
UGAUACCAGACGGCCGCCACUAGACCAGUCAAAGACUGGAAGUGAUGUUUGAGGAGUGAUGUUCCUAGGACCGGGUCUGGUAUCU [TrypBX 3 #Palindromic #SwitchBubble #StaticStem]	97.9	81.7	90.5	89	41.5
AAAAUAAAUCAGUGAUGUUGGUGUCCAGAUACCAGCGACGAAAGUCGCCCUUGGCAGCUGUGGACGUACAAAAUAAGUACGUCCU [MatMod 22 - Jieux - Same State - Theophylline A]	610	316	611	335	465
GAGUUUCGUAAAGGAUAUUCUAGCUAAAGCCAUUAGUGAUGUUGAUGUACGGACGGAAGCCUGGCAGAAGAAGGUUAACAGGAUU [theeternabot_sameState_KL_FMN_B_24]	708	326	410	420	312
CCGCCGGUCGGAAGGAGCGCACGCCAGAGUGAUGUUCUGGCGCGGGCACUUUAUGCCCGCGUGCAGGUAGGUCGCCGAUUCUGGC [Mabema]	464	426	445	446	417
GGCCGGAAGGCGAGCGCUCCCACUCCGGAAGGAGCGCCCGGAAGGGCAGGUAGGUCGCCGGAGUGAUGUUCCGGUGGAGGGCUCG [#2 Exclusion - Arginine A Attempt #19 (Inspired by Omei)]	141	120	80.4	271	70.2
GCAGUGAUGUUGCAACCGCGUACGAUGCCUCGAGGACCGGUACGGCCGCCACUCGUCCUGGUUCAGGAGCUACAGACAUAGCUCA [theeternabot_sameState_KL_Trp_A_2]	563	271	781	408	291
AGAUCUAAGCUGAGUUAGUCACCAUAAAGCAAGGAUAUUCCACGAAGAAGAAGGUGCAUCAUCCAUAGUGAUGUUAUGGCACGGG [theeternabot_sameState_KL_FMN_A_7]	687	548	807	672	574
AUUAAUUUCAGAGGAUAUCGUAUUUAUAUUAUAUCUUUCCAUAUUUGCAGUGAUGUUGCAUUAAUUCGAGAAGGCUGAUUUAUAA [JR_Nu_ExcFMNB_Sub024]	86.1	91	60.4	82.4	53.7
UGAUACCAGACGGCCGCCACUUCCGUAAGUCAAAGACUUACCAAGGGAAUCGUCCAGUGAUGUUGGAGGACCGGGUCUGGUAUCU [FiskerMod 6 - Jieux - Exclusion - Tryptophan B]	960	744	1260	959	788
AAAUGCAGCAAACGAGUGAUGUUCGACGAUACCAGCCUCGAUAGAGGCCCUUGGCAGCGUACAUCAAAGCCAAGGGCUGCUAAAA [#SwitchBubble 3]	483	463	552	499	454
UGACUACAUCCUAGUGAUGUUUAGGAUAUGUAGGAUAUGCUGAUAAGCAGAAGGACAGAAGGAAGUGAUGUUCUUAAAGUAGUCU [FmnAX 29 #DoubleAptamer #Double K4 #SwitchBubble #StaticStem]	644	783	1050	760	802

Sequence	apparent KD of K4 kissing-loop reporter (input ligand: FMN 200 uM) [nM]	apparent KD of K4 kissing-loop reporter (input ligand: arginine 13.2 mM) [nM]	apparent KD of K4 kissing-loop reporter (input ligand: none) [nM]	apparent KD of K4 kissing-loop reporter [1] [nM]	apparent KD of K4 kissing-loop reporter [2] [nM]
GAGGUACAGGCGGCCGCCACUAGUGAUGUUAGUGAUAGAAGAUAUAGUAAAUAUCGGCAUUUAGAUAGGACCGGGCCUGGUGGUG [ffdfcmullin]	296	242	271	286	275
GUGUGUGUCGGAGGAUAUGCGGUGGGUGUGGGCGGAUUAGUGAUGUUGGUUGUGGUGGUGGUGGGUGUAGAAGGUUGGUGUGUGU [RHig 3/7 C]	710	350	738	400	444
GGCCGGUUGAAAGGCCGGCCAGAAACCGAAGGAGCGCGAAGAAACGCAGGUAGGUCGCGGAAAACAUGACCAGUGAUGUUGGUCG	152	173	154	152	144
AGAUGACACCGAGGAUAUCCUAAUAUGGGUGAUGUUAGCGAUGUUGAAGGUGUAGUGAUGUUAUGCGGAGAAGGCGGUGUUGUUU [BDazzled - #21 - Exc. FMN B]	104	103	216	139	132
GCCGUACGCAUGGAUACCAGACAACCAUUCUAAAUUUUGUGUCCGGUAGUGAUGUUACCUGUCCCUUGGCAGCCAUGCGUACGGC	306	261	319	317	338
AAUCAAUACAGAAGGAGCGUGACAAUUACUAUUGAAUUAGGAGCUAGUGAUGUUAGCAUAACACAGGUAGGUCGCUGUACAUUUA [JR_SSArginiB_Sub012]	145	175	163	182	148
AGAGUUAUGCGAGGAUAUGCAGUUAGUACUCAAAGAGUACUAACAGCAGAGUGAUGUUCUGUGAAAGCAGAAGGUGCAUAACUCA [Omei KL FMN B SS B v7]	153	630	1120	641	671
GAGAACUCUUACGAUACCAGCCGGAGUGAUGUUCCGCGCUUGGACGUAGUAACCCGCACCGGCCCUUGGCAGCGUGGAUCCUAUG [Bibiinor]	91.1	81.2	86.1	86.8	80.5
GCUACUGCCUUAGGAUAUAGUUGAGUGAUGUUCAAGCAUAUGCAUGGGAAAACCAUGCAUAUGUCCCUAGAAGGGAGGCAGUAGC	800	627	859	630	740
CCAUUCAUCAGAAGGAGCGUCAAGUGAUGCUAUCCAGUGAUGUUGGAUAGCACGGAACAGUGACAGGUAGGUCGCUGAUGAGAGC [Arg B SS t8]	121	106	115	95.7	131
GUCUCAAAAGAGGCAAGCACUCACGAGGACAAGGAUAUCAUAUCAAUGAGAAGGUGUCCUCGUCCUCAGUGAUGUUGAGGAGUGC [Omei KL FMN A SS E v4]	410	200	247	233	257
CUAGAAGUGAUGUUUCAUAGUAAAUCUGAUACCAGCAUUAAACCCUGCCCUUGGCAGCAGAAUGGGCUGAUAGACUCCUGCAGCU [theeternabot_sameState_KL_Theo_A_36]	220	199	228	208	182
UUAGUUGAAAGUGAUACCAGACAAGUUAAGAGAAGAAAUUAAGUUGGAGUGAUGUUCCAAGUCCCUUGGCAGCACAUUGUAAUUU [Same State Theophylline B GF12]	101	211	129	256	126
UAACCUGUAAACGAUACCAGUUGCAUGGAAACUUGGUACUAGCUAGUGAUGUUAGCAAGCAACCCUUGGCAGCGUCGCCUGACAG [theeternabot_sameState_KL_Theo_B_17]	308	427	395	487	309
UGAUACCAGACGGCCGCCACUCCUGCAGUCAAAGACUGCUAAGGAAUAUUCGUCCAGUGAUGUUGGAGGACCGGGUCUGGUAUCU [TrypBX 12 #SwitchBubble #Palindromic #StaticStem]	1370	991	1380	896	979
